Measured values: patent WO2005107784A1 (dated 2005)

T1: human Mpl (full length, expressed on BaF3 cells) (human, UniProt P40238 26-635)
T1 sequence: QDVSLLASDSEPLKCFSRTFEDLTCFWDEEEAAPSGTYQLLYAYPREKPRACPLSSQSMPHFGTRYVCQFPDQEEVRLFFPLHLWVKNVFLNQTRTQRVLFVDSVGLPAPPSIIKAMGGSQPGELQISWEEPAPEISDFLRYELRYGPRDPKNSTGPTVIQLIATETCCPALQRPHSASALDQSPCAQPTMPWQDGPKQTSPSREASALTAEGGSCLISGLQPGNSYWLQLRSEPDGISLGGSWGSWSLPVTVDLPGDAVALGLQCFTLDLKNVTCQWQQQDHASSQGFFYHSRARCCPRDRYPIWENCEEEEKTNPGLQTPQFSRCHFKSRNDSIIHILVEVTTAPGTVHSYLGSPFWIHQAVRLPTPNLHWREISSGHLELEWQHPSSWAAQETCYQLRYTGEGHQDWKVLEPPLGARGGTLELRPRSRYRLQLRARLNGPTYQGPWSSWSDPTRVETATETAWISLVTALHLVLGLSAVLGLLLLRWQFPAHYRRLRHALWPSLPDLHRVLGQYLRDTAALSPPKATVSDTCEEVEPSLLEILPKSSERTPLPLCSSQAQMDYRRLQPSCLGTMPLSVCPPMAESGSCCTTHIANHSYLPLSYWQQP


Experiments:
[1] = biological target: human Mpl (full length, expressed on BaF3 cells) (human) (UniProt P40238); assay: cell-based or functional assay
[2] = biological target: T1, human Mpl (full length, expressed on …); assay: cell-based or functional assay

BaF-human Mpl EC50 (cell proliferation, WST-8) [1] [nM] | TPO-like agonist activity, BaF-human Mpl EC50 (cell proliferation, WST-8) [2] [nM] | Molecule
0.076 |  | recombinant human TPO (rhTPO, R&D) (from UniProt P40225 22-353) (ligand)
 | 0.061 | VB22B Diabody (scFv) scFv: QVQLQQSGPELVKPGASVKISCKASGYAFTNSWMNWVKQRPGKGLEWIGRIYPGDGETIYNGKFRVKATLTADKSSSTAYMDISSLTSEDSAVYFCARGYDDYSFAYWGQGTLVTVSAGGGGSDIVMTQAAPSIPVTPGESVSISCRSSKSLLHSNGNTYLYWFLQRPGQSPQLLIYRMSNLASGVPDRFSGSGSGTAFTLRISRVEAEDVGVYYCMQHIEYPFTFGSGTKLEIK
 | > 30 | anti-human Mpl antibody VB22B IgG (antibody, V domains shown) VH: QVQLQQSGPELVKPGASVKISCKASGYAFTNSWMNWVKQRPGKGLEWIGRIYPGDGETIYNGKFRVKATLTADKSSSTAYMDISSLTSEDSAVYFCARGYDDYSFAYWGQGTLVTVSA VL: DIVMTQAAPSIPVTPGESVSISCRSSKSLLHSNGNTYLYWFLQRPGQSPQLLIYRMSNLASGVPDRFSGSGSGTAFTLRISRVEAEDVGVYYCMQHIEYPFTFGSGTKLEIK
 | 0.027 | VB22B sc(Fv)2 (scFv) scFv: QVQLQQSGPELVKPGASVKISCKASGYAFTNSWMNWVKQRPGKGLEWIGRIYPGDGETIYNGKFRVKATLTADKSSSTAYMDISSLTSEDSAVYFCARGYDDYSFAYWGQGTLVTVSAGGGGSGGGGSGGGGSDIVMTQAAPSIPVTPGESVSISCRSSKSLLHSNGNTYLYWFLQRPGQSPQLLIYRMSNLASGVPDRFSGSGSGTAFTLRISRVEAEDVGVYYCMQHIEYPFTFGSGTKLEIKGGGGSGGGGSGGGGSQVQLQQSGPELVKPGASVKISCKASGYAFTNSWMNWVKQRPGKGLEWIGRIYPGDGETIYNGKFRVKATLTADKSSSTAYMDISSLTSEDSAVYFCARGYDDYSFAYWGQGTLVTVSAGGGGSGGGGSGGGGSDIVMTQAAPSIPVTPGESVSISCRSSKSLLHSNGNTYLYWFLQRPGQSPQLLIYRMSNLASGVPDRFSGSGSGTAFTLRISRVEAEDVGVYYCMQHIEYPFTFGSGTKLEIK
